Measured values reported in the DeepSol protein solubility set.

Assay: soluble on expression in E. coli; label from the status in PepcDB or PDB records
For “MALSSAPILITGASQRVGLHCALRLLEHGHQVIISYRTEHASVAQLRQAGAHTLHGDFSSEASIMAFIEQLKSHTSSLRAIVHNASEWLAETPGDEAENFTRMFSVHMLAPYLINLHCEALLHASDVADIVHISDDVTRKGSSKHIAYCATKAGLESLTLSFAARFAPLVKVNGIAPALLMFQPKDDAAYRANALAKSAMGIEPGAEVIYQSLRYLLDSTYVTGTTLTVNGGRHV”, the “soluble on expression in E. coli” value was “not soluble”. With “MAMADEQFENYLVMCYDKLESKQQKFISDYNIYNFDEYCYDQDPCILQFKKNGQVLLEFSVVFIGSWSGKSNSWMWSWANENVADYARSKSNCLKDLQKITGSEVFINPLFECDQEMAYELAAFSIEYLDAEGMYMAPGERSDVFMAVMSPHAL” the “soluble on expression in E. coli” value was “not soluble”. For “MAMGKPMQVSRYWRHFREKYRLIGGKCENGHLLFPKRPICPICGSRNIEEFQFSGKGKVITWTIVRNPPSGFEYYKPYPLALVQLEEGPVVLAQLTDVEPEEIKEGMEVEMVTRKIREFDEDGLILYGYKFRPIIKSELEHHHHHH”, the “soluble on expression in E. coli” value was “not soluble”. In the case of “MAMLELLYTALLYLIQPLIWIRLWVRGRKAPAYRKRWGERYGFYRHPLKPGGIMLHSVSVGETLAAIPLVRALRHRYPDLPITVTTMTPTGSERVQSAFGKDVQHVYLPYDLPDALNRFLNKVDPKLVLIMETELWPNLIAALHKRKIPLVIANARLSARSAAGYAKLGKFVRRLLRRITLIAAQNEEDGARFVALGAKNNQVTVTGSLKFDISVTPQLAAKAVTLRRQWAPHRPVWIATSTHEGEESVVIAAHQALLQQFPNLLLILVPRHPERFPDAINLVRQAGLSYITRSSGEVPSTSTQVVVGDTMGELMLLYGIADLAFVGGSLVERGGHNPLEAAAHAIPVLMGPHTFNFKDICARLEQASGLITVTDATTLAKEVSSLLTDAVYRSFYGRHAVEVLYQNQGALQRLLQLLEPYLPPKTHLEHHHHHH”, the “soluble on expression in E. coli” value is reported as “not soluble”. In the case of “MAMPEIDALLGLSFCLYFFDNKQHKLPHIHVKYGSYELIIAIETGECLEGYLPNKQRKRAENHILEHREQLMVMWNKAVNGENPGKLGDLCLEHHHHHH”, the “soluble on expression in E. coli” value is reported as “not soluble”. In the case of “MAMSLREELWLWKKEKLAEHVANNLRKKKHEVWIARDREEILERVKELIPEGATVSAGGSLTLADTGVIELLRSGRYNFLDRAAAKTREEVEEIYRKSFWADYYFTSVNAITEDGKLVFLDGNGNRVAAVVFGPKNVVVIASVNKVVKDVEEARERLRYISPMNSKRLNLETPCTKTGFCADCSSPQRICDYFLVVESGVRQPGRFKVILTLEDFGLLEHHHHHH”, the “soluble on expression in E. coli” value is reported as “not soluble”. With “MANDVMNRNYDFFDPMNFFNEVGNLGRDMFSGDSSMKTDVVEHDKDYVVTAELPGFKKDDIHVDYHDETLRISGKTEVNQSAKDDDGRILRQERRSQNVARSFYLPGIDLKNVKATYADGILTLTLPKQTEVDGSHEISIDLEHHHHHH” the “soluble on expression in E. coli” value was “soluble”. For “MANFEDFLTLDLRIGTVTHAEEFKEARVPAIKLEIDFGELGMKQSSAQITKRYNPEDLIGQQIVAVVNFPPKRVAGFKSEVLVLGGVPEAGDVVLLQPNMELPNGTKIS”, the “soluble on expression in E. coli” value was “not soluble”. For “MANKHHVYWYRHHIVNIIMIVDSKTSDWILIDTGLFYSEAFILKKIRRVLGELIPPKAIILTHGHFDHVGALRPLLQRFPNVPVYAHELELPFLTGQRHYVKPDPSVPGGLMAKLAWLYPYHAYDFSRIICPLPDDGTLPFFTDWRWIHTPGHTEGHVSLFRPSDRFLIAGDAFTTVKQESLLSVLAQKKEIHGPPAYFTPDWELAKTSVETLQKLEPAFAVTGHGQMMEGSSLHSGLKRLISQFEQVAVPDLEHHHHHH”, the “soluble on expression in E. coli” value was “soluble”. With “MANQCFNQAKAVLEFRLDPCHLPQTTTYFSSKTGNQMICSLSERGVFFKTDTFSSLSRLVPSYQFKGIAARTVITLSGEKAVALELLHANEESCVPLLVSRDLNNVLLDWRLWADTYSLPMLMINEDNRLVVVKDRSDLRRFFSTTLHFRKKRFLLRYRNPLGLRLMIANQVAL” the “soluble on expression in E. coli” value was “not soluble”. With “MANQVNGNAVQLKEEEEPMDTSSVTHTEHYKTLIEAGLPQKVAERLDEIFQTGLVAYVDLDERAIDALREFNEEGALSVLQQFKESDLSHVQNKSAFLCGVMKTYRQREKQGSKVQESTKGPDEAKIKALLERTGYTLDVTTGQRKYGGPPPDSVYSGVQPGIGTEVFVGKIPRDLYEDELVPLFEKAGPIWDLRLMMDPLSGQNRGYAFITFCGKEAAQEAVKLCDSYEIRPGKHLGVCISVANNRLFVGSIPKNKTKENILEEFSKVTGLTEGLVDVILYHQPDDKKKNRGFCFLEYEDHKSAAQARRRLMSGKVKVWGNVVTVEWADPVEEPDPEVMAKVKVLFVRNLATTVTEEILEKSFSEFGKLERVKKLKDYAFVHFEDRGAAVKAMDEMNGKEIEGEEIEIVLAKPPDKKRKERQAARQASRSTAYEDYYYHPPPRMPPPIRGRGRGGGRGGYGYPPDYYGYEDYYDDYYGYDYHDYRGGYEDPYYGYDDGYAVRGRGGGRGGRGAPPPPRGRGAPPPRGRAGYSQRGAPLGPPRGSRGGRGGPAQQQRGRGSRGSRGNRGGNVGGKRKADGYNQPDSKRRQTNNQQNWGSQPIAQQPLQQGGDYSGNYGYNNDNQEFYQDTYGQQWK” the “soluble on expression in E. coli” value was “soluble”. In the case of “MANSLCFFSSPPTFCFQSPSKNPKPSHFFSTNDNTSSLVQKRELLQTSRSQSFEVKAANNNPQGTKPNSLVCANCEGEGCVACSQCKGGGVNLIDHFNGQFKAGALCWLCRGKKEVLCGDCNGAGFIGGFLSTFDE”, the “soluble on expression in E. coli” value is reported as “soluble”. With “MANSNTQRMGTGSAILPARRRRATPRRLPKRAAHHYTPRVFSAIEPENSPMLKRSLALAAGIALSLSAALAHAETLKELKVSAIPDEAPTELLRKFKPLGAYLEKQLGMPVKFVPVADYAGVVEALAADRLDMAWLGGFTFVQARLKTGNAIPLVQREQDQQFTSKFITADPQVKSLQDLKGKTFAFGSVSSTSGSLMPRYFMQKDGIVPEQFFSRVAYSGAHDATVAWVQAGKVDAGVLNASVWQKLVDSGKVDTAKVKVFATTPTYYDYNWTVRGNLDPALAEKIKQAFLALDPAKPADKEILDLQAASRFIETNPDNYKGIEESARAAGLLK” the “soluble on expression in E. coli” value was “not soluble”. With “MAPLGTTVLLWSLLRSSPGVERVCFRARIQPWHGGLLQPLPCSFEMGLPRRRFSSEAESGSPETKKPTFMDEEVQSILTKMTGLNLQKTFKPAIQELKPPTYKLMTQAQLEEATRQAVEAAKVRLKMPPVLEERVPINDVLAEDKILEGTETTKYVFTDISYSIPHRCLEHHHHHHH” the “soluble on expression in E. coli” value was “not soluble”. In the case of “MAPRVITLSPANTELAFAAGITPVGVSSYSDYPPQAQKIEQVSTWQGMNLERIVALKPDLVIAWRGGNAERQVDQLASLGIKVMWVDATSIEQIANALRQLAPWSPQPDKAEQAAQSLLDQYAQLKAQYADKPKKRVFLQFGINPPFTSGKESIQNQVLEVCGGENIFKDSRVPWPQVSREQVLARSPQAIVITGGPDQIPKIKQYWGEQLKIPVIPLTSDWFERASPRIILAAQQLCNALSQVDLEHHHHHH”, the “soluble on expression in E. coli” value is reported as “soluble”. For “MAQDWNDKIESAQKMLPLIAQLHNNNNVVVSVFGRLLINVTDIDIVKAHRYSRLATETELSPADTLPVLEALHSINVGPASIDLGRLVELHRSKGGDLTQFLTEELSNVIDTRPA”, the “soluble on expression in E. coli” value was “not soluble”. In the case of “MAQEIELKFIVNHSAVEALRDHLNTLGGEHHDPVQLLNIYYETPDNWLRGHDMGLRIRGENGRYEMTMKVAGRVTGGLHQRPEYNVALSEPTLDLAQLPTEVWPNGELPADLASRVQPLFSTDFYREKWLVAVDGSQIEIALDQGEVKAGEFAEPICELELELLSGDTRAVLKLANQLVSQTGLRQGSLSKAARGYHLAQGNPAREIKPTTILHVAAKADVEQGLEAALELALAQWQYHEELWVRGNDAAKEQVLAAISLVRHTLMLFGGIVPRKASTHLRDLLTQCEATIASAVSAVTAVYSTETAMAKLALTEWLVSKAWQPFLDAKAQGKISDSFKRFADIHLSRHAAELKSVFCQPLGDRYRDQLPRLTRDIDSILLLAGYYDPVVAQAWLENWQGLHHAIATGQRIEIEHFRNEANNQEPFWLHSGKR”, the “soluble on expression in E. coli” value is reported as “soluble”. With “MAQENPLWMRHCAISPDGTTIAFTYKGDIFTVPVSGGKATQITTNPAFDTTPIWSPDSKQIAFASDRMGSMDVFIVSKDGGEPRRLTTFSGGETPVAFTDAGHILFTADIMPSTEDAGFPSNGQFQQIYQIPVSGGRPVMFSSMPMECISINKEGTILYQDKKGYEDYWRKHQKSPIARDIWMLRPGQTPRYEKQTTFIGEDREPVWAPDGKSFYYLSEENGTFNVYQRTPGSDTSKQVTHHKQHPVRFLEHHHHHH” the “soluble on expression in E. coli” value was “not soluble”. In the case of “MAQMKDNNVSNRATLVLYENRFIPLYRMIKEELIRFVQKKGIKSGMALPGDNELASQFGVSVGTVRRAIAELVSERIVIRQQGRGTFLAPYDTSRMLNSFWHIERRDGVVDVPLVSTHGFSQASATEEVAQKLALQPGDPVFVIKNSMTMQGTPVLLDTIYVPVRTFEGLTREKLSARDATIYDFYREQYGINIVKTIDRVSATVADKDTAKRLGCKLGAPMLRILRVAYSFGDTPIEYRCSLLDSENHEYVDVTGGDTSRYG”, the “soluble on expression in E. coli” value is reported as “not soluble”. In the case of “MAQPKFVVAEIVEMEDHPDSDHLHICKVNVGFADPVQIVCGAPNAALGLKTVAALPGAMMPNGSLIFPGALRGVQSYGMLCSARELELPNAPEVRGIIELSSDLSAGKAFDSETMLEHHHHHH”, the “soluble on expression in E. coli” value is reported as “not soluble”. In the case of “MAQSKPAYKVADIKLADFGRKEIILAENEMPGLMAMRSKYGPSQPLKGARIAGCLHMTIQTAVLIETLTALGAEVQWSSCNIFSTQDHAAAAIAQTGVPVYAWKGETDEEYEWCIEQTIVFKDGQPLNMILDDGGDLTNLVHAKYPQYLAGIRGLSEETTTGVHNLAKMLAKGDLKVPAINVNDSVTKSKFDNLYGIRESLPDGIKRATDVMLAGKVAVVAGYGDVGKGSAASLKAFGSRVIVTEIDPINALQAAMEGYEVTTLEEAAPKANIIVTTTGCKDIVTGKHFELLPNDAIVCNVGHFDCEIDVKWLNTNATKKDTIKPQVDRYTLKNGRHVILLAEGRLVNLGCATGHPSFVMSNSFTNQVLAQVELWTKFGTPQEYKLGLYVLPKTLDEEVAYLHLAQLGVKLTKLSDEQASYLGVPVAGPYKPDHYRY”, the “soluble on expression in E. coli” value is reported as “not soluble”. With “MAQSLPPGDIDFQPRKIVFNAPYNEKQVFQIKLINTSALRIAFGINTYMRKLRVDTLCTPRCGVLDPNEHILLAVSCSAFAFGQVDTTNDRITVEWTNTPEGSDKQFCREWLEGEGMVRRKIILIEYNSTPIAPKPTTSSKPLLQATKLGMWLPIGFAASELYDYEKGVPLDRETCEKNLEKLIKNDRDVDYYEWLNLAQQCRTENHKLMEQMALGMAFTSAMANKQHKKVSRKADKDKITGAIVQNKMFSIETAEIWDRVLTLPNRKWFQISDVVTDGEVSNWSSANLVTHVRALARSVFDKVDEADPHMMCYATSQNACIYVPIDKDFFDGFAEYLIGGFGQEQSRDLKLQVRKLVTEVMGNKLNRVRARYNKMYGKDASEEAAKWMREELDKKDGELKECQLIFSKGSKSSYAIEVHGEEEEDLVKSEVLSGDEDVEME” the “soluble on expression in E. coli” value was “not soluble”. For “MAQVAIITASDSGIGKECALLLAQQGFDIGITWHSDEEGAKDTAREVVSHGVRAEIVQLDLGNLPEGALALEKLIQRLGRIDVLVNNAGAMTKAPFLDMAFDEWRKIFTVDVDGAFLCSQIAARQMVKQGQGGRIINITSVHEHTPLPDASAYTAAKHALGGLTKAMALELVRHKILVNAVAPGAIATPMNGMDDSDVKPDAEPSIPLRRFGATHEIASLVVWLCSEGANYTTGQSLIVDGGFMLANPQFNPE”, the “soluble on expression in E. coli” value was “soluble”. In the case of “MAQVMYATPDNMLSRFGEQDLTLLTEREDSVPGEINLALLEQALSDASAEIDGYIAGRYVLPLTTVPAVLERNCCDIARYFLYGDKAPEQVEKRYAAVVKFLTAVSKGDISLGLATTGETADQSELVISIESAGSVFGRKSAKGFI”, the “soluble on expression in E. coli” value is reported as “soluble”.
